The text below walks through data of patent publication US20230364000A1, “COMPOSITIONS COMPRISING COMBINATIONS OF COLLAGEN OR ELASTIN POLYPEPTIDES WITH ACTIVE INGREDIENTS AND METHODS OF USING SAME” (Geltor, Inc., priority 2020, published 2023).

In test [1] the test system is human primary keratinocytes. Nature of the test: MTT viability of UVB-irradiated keratinocytes, pre- and post-irradiation treatment. The class given is cell-based. To be noted: 0.1% for 24 hours before and 24 hours after 40 mJ/cm^2 UVB; compared with UVB-irradiated keratinocytes without treatment; FIG. 5. As to the method:
To further assess the effects of treatment with a polypeptide of SEQ ID NO: 16 on UVB-irradiated keratinocytes, an experiment was performed with pre- and post-irradiation treatment. Human primary keratinocytes were pre-treated with 0.1% of a polypeptide of SEQ ID NO: 16 for 24 hours, irradiated with 40 mJ/cm^2 UVB light, and then treated again with 0.1% of a polypeptide of SEQ ID NO: 16 for an additional 24 hours. Cell viability was evaluated using the MTT metabolic colorimetric assay.

Test [2] deals with Human full-thickness skin equivalents (MatTek Epiderm FT co-culture tissue models). In words: Fibronectin production in human full-thickness skin equivalents (ELISA). The format is cell-based. To be noted: polypeptide 0.1% w/w, FIG. 19.
Test [3] in a line: Oxygen radical absorbance capacity (ORAC) assay, cell-free. The class given is biochemical. To be noted: 0.1% solution. Here is the method:
The antioxidant potential of a polypeptide of SEQ ID NO: 16 was assessed using the oxygen free radical absorbance capacity (ORAC) assay. The ORAC assay is a cell-free assay that uses a fluorescent readout to measure a product's antioxidant capacity. Data is reported in Trolox (Vitamin E) equivalents.
A polypeptide of SEQ ID NO: 5 was also evaluated in the ORAC assay.
An oxygen radical absorbance capacity (ORAC) assay was performed to analyze the anti-oxidative capacity of a polypeptide according to SEQ ID NO: 52. The ORAC assay is a cell-free assay that uses a fluorescent readout to measure anti-oxidative capacity. Data is reported in Trolox (Vitamin E) equivalents (TEs).

Test [4] concerns human primary fibroblasts. In words: Fibroblast collagen type I protein secretion (pro-collagen type I C-peptide ELISA). The note with it: 0.03%; 48 hours; compared with untreated cells or cells treated with retinol; FIG. 1. The class given is cell-based. As to the method: A series of in vitro experiments were conducted to assess the effects of a truncated human type 21 collagen on human skin fibroblasts and keratinocytes. In a first experiment, human primary fibroblasts were evaluated for collagen type I protein secretion. Fibroblasts were cultured with 0.03% of a polypeptide according to SEQ ID NO: 16 for 48 hours. Culture supernatants were analyzed by Enzyme Linked Immunosorbent Assay (ELISA) for pro-collagen type I C-peptide, which is a readout for total secreted collagen type I protein.

Test [5] concerns facial skin. Nature of the test: SIAscope facial skin collagen content, clinical study of Example 5. The class given is in vivo, human. The note with it: topical facial serum 0.1%, n=15, FIG. 7. The source says:
In a clinical study (n=15 subjects), subjects used a topical facial serum containing 0.1% of a polypeptide of SEQ ID NO: 16 for 8 weeks, after using a protein-free base facial serum for a 1-week washout period. Topical application of a polypeptide of SEQ ID NO: 16 was associated with increased skin collagen content, as measured by a SIAscope.

For the next test, the system named is fibroblasts. In words: RNA sequencing of extracellular matrix gene expression in fibroblasts. The class given is cell-based, human. To be noted: 0.03%, 48 hours. As to the method:
RNA sequencing was performed to analyze global gene expression. After 48 hours of exposure, fibroblasts were incubated with 0.03% of a polypeptide according to SEQ ID NO: 16. These fibroblasts expressed higher levels of several extracellular matrix genes than cells incubated in media alone. […] This response was similar to fibroblasts treated with Vitamin C (FIG. 2A; “D”).

In test [6] the test system is facial skin. Nature of the test: Corneometer skin hydration, clinical study of Example 3. The format is in vivo, human. Further details: key to Corneometer Mean Percent Improvement From BL mean: NI = No Improvement. The note with it: 0.1% w/w topical formulation; for Corneometer Mean ± SD: n 14, baseline 42.45 ± 10.06. As to the method:
A clinical study using human subjects to determine the effects of a topical skincare product containing truncated human type 21 collagen (SEQ ID NO: 16) is performed. The research is performed according to U.S. and International standards of Good Clinical Practice (FDA and ICH guidelines) and applicable government regulations.
A base formulation (control formulation) made of water, olive oil glycereth-8 esters, glycerin, coconut alkanes, hydroxyethyl acrylate/sodium acryloyldimethyl taurate copolymer, pentylene glycol, disodium EDTA, caprylyl glycol, chlorphenesin, phenoxyethanol is prepared. A formulation containing the truncated human type 21 collagen is prepared by adding sufficient collagen to prepare a topical formulation containing 0.1% w/w collagen.
The corneometer CM 820 (Courage+Khazaka, Germany) measures the relative degree of hydration of the skin surface by applying an alternating current to the skin with a closely spaced pair of electrodes and measuring the capacitance. Changes in water content of the skin change the conductance of the capacitive circuit.
The corneometer is able to detect slight changes in the hydration level reproducibly with a measurement time of only about one second. The measurement depth is small (approximately 10-20 μm of stratum corneum) which ensures assessment is not influenced by deeper skin layers.
All subjects undergo corneometer measurements of their face at baseline, immediately post-initial-application, and at weeks 2, 4, and 8. Measurements will be taken in triplicate and averaged for each time point. Measurement location is recorded on a face map for assessment consistency at each time point.
Improvements in skin hydration, firmness, and elasticity were statistically significant.

In test [7] the test system is Human full-thickness skin equivalents (MatTek Epiderm FT co-culture tissue models). Nature of the test: Elastin production in human full-thickness skin equivalents (ELISA). The format is cell-based. The note with it: polypeptide 0.1% w/w, retinol (10, unit not given), ascorbic acid 2% w/w, FIG. 20. The source says: The combination of the truncated human type 21 collagen polypeptide with retinol increased elastin production by 45% relative to untreated control. This appeared to be a synergistic effect as treatment with truncated human type 21 collagen polypeptide alone increased elastin production by 20% and treatment with retinol alone increased elastin production by 17%. The combination of the truncated human type 21 collagen polypeptide with ascorbic acid increased elastin production by 33% relative to untreated control. This appeared to be a synergistic effect as treatment with truncated human type 21 collagen polypeptide alone increased elastin production by 20% and treatment with ascorbic acid alone increased elastin production by 5%.

Test [8] relates to facial skin. Nature of the test: Facial wrinkles, clinical study of Example 5. The class given is in vivo, human. The note with it: topical facial serum 0.1%, n=15, FIG. 9. The source says: In a clinical study (n=15 subjects), subjects used a topical facial serum containing 0.1% of a polypeptide of SEQ ID NO: 16 for 8 weeks, after using a protein-free base facial serum for a 1-week washout period.

B1: SEQ ID NO: 16: truncated human collagen type 21 alpha 1 without the DsbA secretion tag, recombinantly expressed in E. coli (protein)
chain: AGFPGLPGPAGEPGRHGKDGLMGSPGFKGEAGSPGAPGQDGTRGEPGIPGFPGNRGLMGQKGEIGPPGQQGKKGAPGMPGLMGSNGSPGQPGTPGSKGSKGEPGIQGMPGASGLKGEPGATGSPGEPGYMGLPGIQGKKGDKGNQGEKGIQGQKGENGRQGIPGQQGIQGHHGAKGERGEKGEPGVR
As for B1, the “cell viability (MTT)” value in test [1] is recorded as “higher cell viability”. Moreover, the “increase of fibronectin production relative to untreated control” value in test [2] (day 4 supernatant, hyaluronic acid 0.1% w/w (low molecular weight, 15-40 kDa)) was found to be 67%. In [2] (each agent alone, day 4, retinol (10, unit not given), ascorbic acid 2% w/w, hyaluronic acid 0.1% w/w), the “production of fibronectin as compared to untreated cells” value was “increased production”. Besides, the “antioxidant properties, Trolox (Vitamin E) equivalents” value in test [3] was determined as 190 μM Trolox. Besides, the “secreted collagen type I (pro-collagen type I C-peptide)” value in test [4] is “higher levels”. The skin collagen content result in the test with facial skin [5] (2 weeks vs baseline) and in the test on facial skin [5] (8 weeks vs baseline) was “increased” each time. The “elastin gene (ELN) expression” value in the test with fibroblasts (relative to untreated cells and various marine collagens, FIG. 2B) is “upregulated”. The “collagen type I gene (COL1A) expression” value in the test on fibroblasts (relative to untreated cells or retinol, similar to Vitamin C, FIG. 2A) is on record as “upregulated”. The “fibronectin gene (FN1) expression” value in the test with fibroblasts (relative to untreated cells, retinol and Vitamin C, FIG. 2C) is on record as “upregulated”. Besides, the “Corneometer Mean Percent Improvement From BL mean” value was 36.69% with facial skin [6] (Immediate) and “NI” with facial skin [6] (Week 2). The figures for the “Corneometer Percent of Subjects Showing Improvement From BL” value with facial skin [6] (Immediate) and with facial skin [6] (Week 2) were 100% and 14.3%, respectively. Besides, the “Corneometer Mean ± SD” value stood at 57.22 ± 12.47 in the test with facial skin [6] (Immediate, P-value <0.001*) and 35.71 ± 10.77 with facial skin [6] (Week 2, P-value 0.001** (significant worsening)). In test [7] (day 2 supernatant), the “increase of elastin production relative to untreated control” value amounted to 20%. In addition, the “production of elastin as compared to untreated cells” value in [7] (each agent alone, day 2, hyaluronic acid 0.1% w/w) is listed as “increased production”. Further, the facial wrinkles result with facial skin [8] (4 weeks vs baseline) and in the test with facial skin [8] (8 weeks vs baseline) was “reduction” each time.
